Experimental data reported in patent publication US9474782B2, “Use of decorin for increasing muscle mass” (Association Francaise contre les Myopathies, priority 2009, dated 2016).
Values joined by “and” are separate entries in the source; they are usually repeats but may differ in a detail not shown here. Equal values may be shown once.

B1: mDecorin: recombinant mouse decorin (mDecorin) of sequence SEQ ID NO: 6, provided by R&D Systems (protein)
chain: MKATLIFFLLAQVSWAGPFEQRGLFDFMLEDEASGIIPYDPDNPLISMCPYRCQCHLRVVQCSDLGLDKVPWDFPPDTTLLDLQNNKITEIKEGAFKNLKDLHTLILVNNKISKISPEAFKPLVKLERLYLSKNQLKELPEKMPRTLQELRVHENEITKLRKSDFNGLNNVLVIELGGNPLKNSGIENGAFQGLKSLSYIRISDTNITAIPQGLPTSLTEVHLDGNKITKVDAPSLKGLINLSKLGLSFNSITVMENGSLANVPHLRELHLDNNKLLRVPAGLAQHKYIQVVYLHNNNISAVGQNDFCRAGHPSRKASYSAVSLYGNPVRYWEIFPNTFRCVYVRSAIQLGNYK
modifications: murine DCN

Key:
[1] = tested on: mdx mice; assay: Weight of tibialis anterior muscles after intramuscular injection into dystrophic mdx mice; assay type: in vivo, mouse; details: for Activity of decorin fragment on muscle growth (ability to increase muscle mass), in words: decorin fragments, intramuscular injection
Method: The protein used was recombinant mouse decorin (mDecorin) of sequence SEQ ID NO: 6, provided by R&D Systems. Twenty-four to forty hours before the injection, 100 μl of 150 mM sterile NaCl and 6 μl of 250 μM ZnCl2 were added to 100 μg of mDecorin powder. The final volume was 106 μl with a final concentration of approximately 1 μg/μl. For the injections into the control muscles a mixture was also prepared of 100 μl of 150 mM NaCl and 6 μl of 250 μM ZnCl2. All these solutions, after being vortexed, were stored at 4° C. In Vivo Injection mdx dystrophic ([…] muscular dystrophy) or gamma-sarcoglycan −/− mice were used that were at least 6 weeks old. 20 μg of mDecorin, i.e. 22 μl of the solution described above (20 μg Decorin+15 μM ZnCl2/22 μl NaCl), were injected into the left tibialis anterior (LTA), the muscle treated. 22 μl of the control solution described above (15 μM ZnCl2/22 μl NaCl) were administered into the control muscle, the right tibialis anterior (RTA). A specific number of days after injection, the mice were sacrificed and the RTA and LTA were removed, weighed then frozen for further histological study. Preparation and Injection of the Solution Containing the Peptide mDCN 31-71: […] It was dissolved at 2 mg/ml in 150 mM NaCl and stored at −80° C. For injections, the preparation protocol was identical to that used for the protein, i.e. 24-40 hours before injection, the desired amount of peptide was removed from the stock solution and mixed with a solution of zinc chloride (ZnCl2) and 150 mM NaCl, to produce a final zinc concentration of 15 μM. The injection protocol was identical to that used for the protein. The RTA and LTA muscles were collected 7 (D7), 14 (D14) or 21 (D21) days after the injection and weighed. The experiment was repeated on three separate mice each time. The results are summarised in the following tables: mdx Mice were Injected Intramuscularly into the TA with the Following Formulations: LTA 1: 65 μg peptide 41 DCN+15 μM ZnCl2/33 μl NaCl; RTA 2: 15 μM ZnCl2/33 μl NaCl. At D18, the mice were sacrificed and the weight of the RTA and LTA muscles was measured.

[2] = tested on: gamma-sarcoglycan -/- mice; assay: Weight of tibialis anterior muscles at D18 after intramuscular injection into dystrophic gamma-sarcoglycan -/- mice; assay type: in vivo; details: D18, one value per mouse
Method: The protein used was recombinant mouse decorin (mDecorin) of sequence SEQ ID NO: 6, provided by R&D Systems. Twenty-four to forty hours before the injection, 100 μl of 150 mM sterile NaCl and 6 μl of 250 μM ZnCl2 were added to 100 μg of mDecorin powder. The final volume was 106 μl with a final concentration of approximately 1 μg/μl. For the injections into the control muscles a mixture was also prepared of 100 μl of 150 mM NaCl and 6 μl of 250 μM ZnCl2. All these solutions, after being vortexed, were stored at 4° C. In Vivo Injection mdx dystrophic ([…] muscular dystrophy) or gamma-sarcoglycan −/− mice were used that were at least 6 weeks old. 20 μg of mDecorin, i.e. 22 μl of the solution described above (20 μg Decorin+15 μM ZnCl2/22 μl NaCl), were injected into the left tibialis anterior (LTA), the muscle treated. 22 μl of the control solution described above (15 μM ZnCl2/22 μl NaCl) were administered into the control muscle, the right tibialis anterior (RTA). A specific number of days after injection, the mice were sacrificed and the RTA and LTA were removed, weighed then frozen for further histological study. A second series of experiments was performed on four gamma-sarcoglycan −/− mice. The protocol was identical to that described for mdx mice. The mice were sacrificed on D18.

Molecule | Activity of decorin fragment on muscle growth (ability to increase muscle mass), in words [1] | Weight of treated muscle (LTA) ([1]; 65 μg peptide + 15 μM ZnCl2/33 μl NaCl intramuscular into left tibialis anterior, D18, one value per mouse) | Growth ([1]; 65 μg peptide + 15 μM ZnCl2/33 μl NaCl intramuscular, treated LTA vs control RTA, D18, one value per mouse) | Weight of treated muscle (LTA) ([2]; 20 μg mDecorin + 15 μM ZnCl2 intramuscular into left tibialis anterior) | Growth ([2]; 20 μg mDecorin + 15 μM ZnCl2 intramuscular, treated LTA vs control RTA) | Weight of treated muscle (LTA) ([1]; 20 μg mDecorin + 15 μM ZnCl2 intramuscular into left tibialis anterior, Day 7, one value per mouse) | Weight of treated muscle (LTA) ([1]; 20 μg mDecorin + 15 μM ZnCl2 intramuscular into left tibialis anterior, Day 14, one value per mouse) | Weight of treated muscle (LTA) ([1]; 20 μg mDecorin + 15 μM ZnCl2 intramuscular into left tibialis anterior, Day 21, one value per mouse) | Growth in % (100*LTA/RTA) − 100 ([1]; 20 μg mDecorin + 15 μM ZnCl2 intramuscular, treated LTA vs control RTA, Day 7, one value per mouse) | Growth ([1]; 20 μg mDecorin + 15 μM ZnCl2 intramuscular, treated LTA vs control RTA, Day 14, one value per mouse) | Growth (increase in muscle mass) ([1]; 20 μg mDecorin + 15 μM ZnCl2 intramuscular, treated LTA vs control RTA, Day 21, one value per mouse) | Growth (increase in muscle mass) ([1]; 20 μg mDecorin + 15 μM ZnCl2 intramuscular, treated LTA vs control RTA, Day 21, one value per mouse, listed as decorin)
SEQ ID NO:15: fragment of 30 residues (residues 42 to 71 of murine decorin SEQ ID NO: 6) (DNPLISMCPYRCQCHLRVVQCSDLGLDKVP; murine 42-71 DCN) | also active |  |  |  |  |  |  |  |  |  |  | 
mDCN 31-71: peptide (SEQ ID NO: 7) corresponding to residues 31-71 of murine decorin, zinc-binding N-terminal part, synthesised by NeoMPS (DEASGIIPYDPDNPLISMCPYRCQCHLRVVQCSDLGLDKVP; murine 31-71 DCN) | had the required activity | 0.0583 g and 0.0468 g and 0.05 g | 8.77% and 19.39% and 24.69% |  |  |  |  |  |  |  |  | 
B1 |  |  |  | 0.0505 g and 0.0485 g and 0.0593 g and 0.0551 g | 10.75% and 17.43% and 12.31% and 24.10% | 0.0682 g and 0.0781 g and 0.0771 g | 0.1124 g and 0.103 g and 0.0911 g | 0.1041 g and 0.0943 g and 0.1003 g | 3.18% and 0.90% and 2.94% | 58.98% and 48.41% and 6.67% | 53.09% and 66.31% and 37.21% | 53.09% and 66.31%
